Reference: the supplement of paper PMC7877785
± gives the uncertainty stated by the source.

Assay: self-splicing fitness, log relative to wild type (ln ratio); higher = more splicing; Tetrahymena group I intron in knt gene, E. coli kanamycin selection, DiMSum; sequences stand for … in CUCUCU…GGAGGGAAAAGUUAUCAGGCAUGCACCUGGUAGCUAGUCUUUAAACCAAUAGAUUGCAUCGGUUUAAAAGGCAAGACCGUCAAAUUGCGGGAAAGGGGUCAACAGCCGUUCAGUACCAAGUCUCAGGGGAAACUUUGAGAUGGCCUUGCAAAGGGUAUGGUAAUAAGCUGACGGACAUGGUCCUAACCACGCAGCCAAGUCCUAAGUCAACAGAUCUUCUGUUGAUAUGGAUGCAGUUCACAGACUAAAUGUCGGUCGGGGAAGAUGUAUUCUUCUCAUAAGAUAUAGUCGGACCUCUCCUUAAUGGGAGCUAGCGGAUGAAGUGAUGCAACACUGGAGCCGCUGGGAACUAAUUUGUAUGCGAAAGUAUAUUGAUUAGUUUUGGAGUACUCGUGGUCG
In short: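 Pooled colonies went to amplicon sequencing on an Illumina HiSeq 2500 after six replicate transformations. The plates were LB agar with 100 μg/mL carbenicillin, 50 μM IPTG and 0.2% rhamnose, with or without 25 μg/mL kanamycin, incubated overnight at 37°C or 30°C. The E. coli BL21(DE3) library had all eight P1ex-region intron nucleotides randomised, the intron placed in the knt kanamycin-resistance gene on pET-22b(+). DiMSum fitness is the error-weighted combination of replicate fold changes, kanamycin against none, normalised to wild type.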

| Sequence | self-splicing fitness (ln) (30 °C) | self-splicing fitness (ln) (37 °C) |
| --- | --- | --- |
| CGCGAGCAAUAUUACGGGCG | -3.25 ± 0.24 | -3.4 ± 0.42 |
| CGCGAGCAAUAUUACGGGUG | -2.14 ± 0.077 | -1.68 ± 0.1 |
| CGCGAGCAAUAUUACGUAGU | -3.92 ± 0.18 | -2.14 ± 0.16 |
| CGCGAGCAAUAUUACGUCGC | -2.79 ± 0.24 | -3.48 ± 0.37 |
| CGCGAGCAAUAUUACGUCGG | -1.99 ± 0.086 | -1.16 ± 0.093 |
| CGCGAGCAAUAUUACGUUAC | -4.07 ± 0.28 | -1.78 ± 0.33 |
| CGCGAGCAAUAUUACGUUAU | -3.91 ± 0.21 | -3.49 ± 0.3 |
| CGCUAGCAAUAUUACGACCG | -1.12 ± 0.11 | -0.347 ± 0.15 |
| CGCUAGCAAUAUUACGAGGG | -2.59 ± 0.11 | -2.44 ± 0.17 |
| CGCUAGCAAUAUUACGAUGG | -0.85 ± 0.075 | 0.251 ± 0.083 |
| CGCUAGCAAUAUUACGCAGU | -3.63 ± 0.2 | -2.35 ± 0.2 |
| CGCUAGCAAUAUUACGCAUC | -3.88 ± 0.36 | -2.66 ± 0.29 |
| CGCUAGCAAUAUUACGCCUA | -2.65 ± 0.25 | -3.05 ± 0.28 |
| CGCUAGCAAUAUUACGCGGA | -3.21 ± 0.17 | -1.73 ± 0.099 |
| CGCUAGCAAUAUUACGCUAA | -1.93 ± 0.22 | -1.53 ± 0.25 |
| CGCUAGCAAUAUUACGCUAU | – | -2.46 ± 0.27 |
| CGCUAGCAAUAUUACGCUUU | -3.13 ± 0.18 | -2.32 ± 0.2 |
| CGCUAGCAAUAUUACGGAAG | -1.7 ± 0.16 | 0.348 ± 0.17 |
| CGCUAGCAAUAUUACGGAGA | – | -2.2 ± 0.36 |
| CGCUAGCAAUAUUACGGAGG | -1.78 ± 0.099 | -0.655 ± 0.13 |
| CGCUAGCAAUAUUACGGCAU | -1.89 ± 0.093 | -0.622 ± 0.083 |
| CGCUAGCAAUAUUACGGCCA | -0.309 ± 0.16 | -0.364 ± 0.2 |
| CGCUAGCAAUAUUACGGUCC | -1.48 ± 0.12 | -0.153 ± 0.15 |
| CGCUAGCAAUAUUACGGUUG | -2.07 ± 0.055 | -0.803 ± 0.072 |
| CGCUAGCAAUAUUACGGUUU | -1.69 ± 0.053 | -0.856 ± 0.074 |
| CGCUAGCAAUAUUACGUCGC | -2.3 ± 0.33 | – |

| Sequence | self-splicing fitness (ln) (30 °C) | self-splicing fitness (ln) (37 °C) |
| --- | --- | --- |
| CGCUAGCAAUAUUACGUCUU | – | -0.855 ± 0.16 |
| CGCUAGCAAUAUUACGUGUC | -2.34 ± 0.13 | -2.78 ± 0.17 |
| CGCUAGCAAUAUUACGUUCA | -1.39 ± 0.12 | -1.68 ± 0.14 |
| CGGAAGCAAUAUUACGACGC | – | -0.637 ± 0.37 |
| CGGAAGCAAUAUUACGACUU | -1.28 ± 0.084 | 0.261 ± 0.089 |
| CGGAAGCAAUAUUACGAGGU | -4.22 ± 0.39 | -2.42 ± 0.35 |
| CGGAAGCAAUAUUACGAUCU | -1.11 ± 0.12 | -0.942 ± 0.15 |
| CGGAAGCAAUAUUACGCUAU | -3.66 ± 0.25 | -2.13 ± 0.2 |
| CGGAAGCAAUAUUACGGAUA | -3.36 ± 0.41 | -1.81 ± 0.18 |
| CGGAAGCAAUAUUACGGCAU | -3.02 ± 0.34 | -1.55 ± 0.3 |
| CGGAAGCAAUAUUACGGCGA | -0.522 ± 0.3 | – |
| CGGAAGCAAUAUUACGGCUC | -4.04 ± 0.25 | -2.51 ± 0.24 |
| CGGAAGCAAUAUUACGGCUG | -1.79 ± 0.094 | -1.36 ± 0.099 |
| CGGAAGCAAUAUUACGGGUA | -3.4 ± 0.23 | -2.07 ± 0.14 |
| CGGAAGCAAUAUUACGGUAU | -4.04 ± 0.16 | -1.95 ± 0.098 |
| CGGAAGCAAUAUUACGGUCU | -1.38 ± 0.074 | -0.791 ± 0.099 |
| CGGAAGCAAUAUUACGUAAG | -0.619 ± 0.072 | 0.241 ± 0.1 |
| CGGAAGCAAUAUUACGUACU | -0.218 ± 0.071 | -0.296 ± 0.096 |
| CGGAAGCAAUAUUACGUAUC | -3.82 ± 0.21 | -2.81 ± 0.22 |
| CGGAAGCAAUAUUACGUCAA | – | -3.55 ± 0.42 |
| CGGAAGCAAUAUUACGUCGU | – | -2.21 ± 0.36 |
| CGGAAGCAAUAUUACGUGGG | -3.23 ± 0.13 | -2.85 ± 0.18 |
| CGGAAGCAAUAUUACGUUAC | – | -2.57 ± 0.2 |
| CGGAAGCAAUAUUACGUUAG | -1.41 ± 0.061 | -0.697 ± 0.077 |
| CGGCAGCAAUAUUACGAAAC | -3.19 ± 0.33 | -2.93 ± 0.25 |
